Assay results: patent US20220348635A1, “COMPOSITIONS AND METHODS FOR NEUROLOGICAL DISEASES” (Coda Biotherapeutics, Inc., priority 2019, published 2022)

Experiments:
Type in all cases: cell-based
[1] = YFP quench plate reader assay, response to acetylcholine; conditions: LX293T YFP reporter cells
Procedure, shortened: (§1)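 Anion-flux assay: channel opening admits iodide, quenching a co-expressed YFP reporter in LX293T cells transfected with engineered receptor mutants. Ligands were applied at several doses from 2× solutions in NaI-substituted ECS.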

[2] = YFP quench plate reader assay, response to APN-1125; conditions: LX293T YFP reporter cells
Procedure, shortened: as §1

[3] = YFP quench plate reader assay, response to AZD-0328; conditions: LX293T YFP reporter cells
Procedure, shortened: as §1

[4] = YFP quench plate reader assay, response to RG3487; conditions: LX293T YFP reporter cells
Procedure, shortened: as §1

[5] = Manual patch clamp, rat DRG neurons, Facinicline/RG3487; conditions: cultured adult rat DRG neurons expressing the receptor; not observed in non-transduced cells
Method: (§2) Using whole cell manual patch clamp electrophysiology in HEK293 cells and rat DRG neurons, the EC50 of the various engineered receptors disclosed herein to Ach and non-native ligands was measured. The rheobase shift was also measured in rat DRG neurons, which reflects the efficacy of the receptors. To calculate the rheobase, first, the amount of current that can produce an action potential was determined. Then the ligand was added, followed by a step wise increase in the current injected up to 700 pA. The current injected after addition of the ligand was divided by, the original current injected to obtain an action potential, to calculate the rheobase. The EC50 was calculated using the Hill equation with peak current measurements from escalating doses of ligand.

[6] = Rheobase shift in rat DRG neurons, TC-5619
Method: as §2

[7] = Evoked action potentials in transduced rat DRG neurons, acetylcholine; conditions: Acetylcholine at 3.0 mM, n=4
Method: Acetylcholine at 3.0 mM had no effect on evoked action potentials in transduced neurons (n=4) (FIG. 4B).

B1: Y115D, L131Q in SEQ ID NO: 33: CR-11 (Chemogenic receptor-11): SEQ ID NO: 33 with substitutions Y115D and L131Q (protein)
chain: MRCSPGGVWLALAASLLHVSLQGEFQRKLYKELVKNYNPLERPVANDSQPLTVYFSLSLLQIMDVDEKNQVLTTNIWLQMSWTDHYLQWNVSEYPGVKTVRFPDGQIWKPDILLDNSADERFDATFHTNVQVNSSGHCQYLPPGIFKSSCPMDLKNFPMDVQTCKLKFGSWSYGGWSLDLQMQEADISGYIPNGEWDLVGIPGKRSERFYECCKEPYPDVTFTVTMRRRMGYYLIQMYIPSLLIVILSWISFWINMDAAPARVGLGITTVLTMTTQSSGSRASLPKVSYVKAIDIWMAVCLLFVFSALLEYAAVNFVSRQHKELLRFRRKRRHHKSPMLNLFQEDEAGEGRFNFSAYGMGPACLQAKDGISVKGANNSNTTNPPPAPSKSPEEMRKLFIQRAKKIDKISRIGFPMAFLIFNMFYWIIYKIVRREDVHNQ
modifications: synthetic sequence of chimeric LGIC
- percent quench of YFP fluorescence, 10 uM ach ([1]; 10 uM acetylcholine): 9.47%
- percent quench of YFP fluorescence, 100 uM ach ([1]; 100 uM acetylcholine): 6.12%
- percent quench of YFP fluorescence, 1 mM ach ([1]; 1 mM acetylcholine): −1.56%
- percent quench of YFP fluorescence, 3 mM ach ([1]; 3 mM acetylcholine): 17.57%
- percent quench of YFP fluorescence, 100 nM apn ([2]; 100 nM APN-1125): −10.03%
- percent quench of YFP fluorescence, 1 uM apn ([2]; 1 uM APN-1125): −3.33%
- percent quench of YFP fluorescence, 30 uM apn ([2]; 30 uM APN-1125): 6.96%
- percent quench of YFP fluorescence, 100 nM azd ([3]; 100 nM AZD-0328): 12.15%
- percent quench of YFP fluorescence, 300 nM azd ([3]; 300 nM AZD-0328): 30.92%
- percent quench of YFP fluorescence, 30 uM azd ([3]; 30 uM AZD-0328): 68.65%
- percent quench of YFP fluorescence, 30 nM fac ([4]; 30 nM RG3487): 41.32%
- percent quench of YFP fluorescence, 100 nM fac ([4]; 100 nM RG3487): 59.51%
- percent quench of YFP fluorescence, 300 nM fac ([4]; 300 nM RG3487): 74.86%
- percent quench of YFP fluorescence, 10 uM fac ([4]; 10 uM RG3487): 78.53%
- percent quench of YFP fluorescence, 30 uM fac ([4]; 30 uM RG3487): 84.45%
- chloride current on application of RG-3487 (SA-2) [5]: generated chloride current in a dose dependent manner
- Rheobase Shift; Rat DRG Neurons, +TC-5619 ([6]; TC5619 @ EC90): 625 ± 35 pA
- Rheobase Shift; Rat DRG Neurons, Baseline ([6]; receptor-expressing rat DRG neurons, before ligand): 163 ± 28 pA
- effect on evoked action potentials [7]: no effect
